Fewer inactive variants are shown than the library holds.
B1: TPR 5TU (parent)
chain: GGAUCUUCUCGAUCUAACAAAAAAGACAAAUCUGCCACAAAGCUUGAGAGCAUCUUCGGAUGCAGAGGCGGCAGCCUUCGGUGGCGCGAUAGCGCCAACGUUCUCAACUAUGACACGCAAAACGCGUGCUCCGUUGAAUGGAGUUUAUCAUG

Variants of: B1
Assay: polymerase ribozyme fitness, log enrichment relative to wild type (log ratio); higher = more active; in vitro selection for triplet polymerase activity
Method in brief: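 The heterodimeric triplet polymerase ribozyme's subunits were each mutagenized into PCR-built libraries and transcribed. Every library was selected once, in triplicate, by annealing with a biotinylated primer, the partner subunit and triplets, incubating frozen at −7 °C, gel-excising extended constructs, capturing on streptavidin beads and running RT-PCR. Input and output libraries were Illumina-sequenced, with genotypes kept only at ≥10 input reads and ≥1 read per output. Fitness, from inverse-variance-weighted replicate averages, is the base-2 logarithm of genotype enrichment over wild-type enrichment.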

Variant | polymerase ribozyme fitness (log ratio)
GGAUCUUCUCGAUCUAAAAAAAAAGACAAAUCUGCCACAAAGCUUGAGAGCAUCUUCGGAUGCAGAGGCGGCGGCCUUCGGUCGCGCGAUAGCGCCAACGUUCUCAACUAUGACACGUAAAACGCGUGCUCCGUUGAAUGGAGUUUAUCGUG | ≤ -4.2
GGAUCUUCUCGAUCUAACAAAAAAGACAAAUCUGCCACAAAGCUUGAGAGCAUCUUCGGAUGCAGAGGCGGCAGCCUUCGGUGGCGCGAUAGCGCCUACGUCCUCAACUAUGACACGCAAAACGCGUGCUCCGUUGACUGGAGUUUAUCAUG | ≤ -4.2
GGAUCUUCUCGAUCUAACAAAAAAGACAAAUCUGCCACAAAGCUUGAGACCAUCUUCGGAUGCAGAGGCGGCAACCUUCGGUGGCGCGAUAUCGCCAACGUUCUCAACUAUGACACGCAAAACGCGUGCUCCGUUGAAUGGAGUUUAUCAUG | ≤ -4.2
GGAUCUUCUCGAUCUUACAAAAAAGACAAAUCUGCCCCAAAGCUUGAGAGCAUCUUCGGAUGUAGAGGCGGCAGCCUUCGGUGGCGCGAUAGCGUCAACGUUCUCAACUAUGACACGCAAAAAGCGUGCUCCGUUGAAUGUAGUUUAUCAUG | -4.01
GGAUCUUCUCGAUCUAACAAAAAAGACAAAUCUGCCACAAAGCUUGAGAGCUUCUUCGGAUGCAGAGGCGGCAGCCUUCGGUGGCGCGAUAGCGCCAACGUUCUCAACUAUGACACGUAAAACGCGUGCUCCGUUGAAUGGAGUUUAUCAUG | -1.14
GGAUCUUCUCGAUCUAACAAAAAAGACAAAUCUGCAACAAAGCUUGAGAGCAUCUUCGGAUGCAGAGGCGGCACCCUUCGGUGGCGCGAUAGCGCCAACGUUCUCAACUAUGACACGCAAAACGCGUGCUCCGUUGAAUGGAGUUUAUCAUG | ≤ -4.2
GGAUCUUCUCGAUCUAACAAAAAAGACAAAUCUGCCACAAAGCUUGAGAGCAUCUUCGGAUGCAGAGGCGGCAGCCUUCGGUGGGGCGAUAGCGCCAAUGUUCUCAACUAUGACACGCAAAACGCGUGCUCCGUUGAAUUGAGUUUAUCAUG | ≤ -4.2
GGAUCUUCUCGAUCUAACAAAAAAGACAAAUCUGCCACAAAGCUUGAGGGCAUCUUCGGAUGCAGAGGCGGCAGCCUUCGGUGGAGCGAUAGCGCCAACGUUCUCAACUAUGACACGCAAAACGCGUGCUCCGUUGAAUGGAGUUUAUCAUG | -2.52
GGAUCUUCUCGAUCUAACAAAAUAGACGAAUGUGCCACAAAGCUUGAGAGCAUCUUCGGAUGCAGAGGCGGCAGCCUUCGGUGGUGCGAUAGCGCCAACGUUCUCAACUAUGACACGCAAAACGCGUUAUCCGUUGAAUGGAGUUGAUCAUG | -4.14
GGAUCUUCUCGAUCUAACAAAAAAGACAAAUCUGCCACAAAGCUUGAGAGCAUCUACGGAUGCAGAGGCGGCAGCCUUCGGUGGCGCGAUAGCGCAAACGUUCUCAACUAUGACACGCAAAACGCGUGCUCCGUUGAAUGGAGUUUAUCAUG | -0.833
GGAUCUUCUCGCUCUAACAAAAAAGACAAAUCUGCCACAAAGCUUGAGAGCAUCUUCGGAUGCAGAGGCGGCAGCCUUCGGUGGCGCGAUAGUGCCAACGUUCUCAACUAUGACACGCAGAACGCGUGCUCCGUUGAAUGGAGUUUAUCAUG | -0.829
GGAUCUUCUCGAUCUAACAAAAAACACAAAUCUGCCACAAAGCUUGAGAGCAGCUUAGGAUGCAGAGGCGGCAGCCUUCGGUGGCGCGAUAGCGCCAACGUUCUCAACUAUGACACGCACAACGCGUACUCCGUUGAAUGGAGUUUAUCAUG | ≤ -4.2
GGAUCUUCUCGAUCUAACAAAAAAGACAAAUCUGCCACAAAGCAUGAGAGCAUCUUCGGAUGCAGAGGCGGCAGCCUUCGGUGGAGCGAUAGCGCGAACGUUCUCAACUAUGACACGCAAAACGCGUGCUCCGUUGAAUGGAGUUUAUCAUG | ≤ -4.2
GGAUCUUCUCGAUCUAACAAAAAAGACAAAUCUGCCUCAAAGCUUGAGAGCAACUUCGGAUGCAGAGACGGCAGCCUUCGGUGGCGCGAUAGCGCCAUCGUUCUCAACUAUGACACGCAAAACGCGUGCUCCGUUGAAUGGAGUUUAUCAUG | ≤ -4.2
GGAUCUUCUCGAUCUAACAAAAAAGACAAAUCUGCCACAAAGCUUGAGAGCAUCUUCGGAUGCAGAGGCGGCAGCCUUCGGUGGCCCGAUAGCGCCAACGUUCUCAACUAUGACACGCAAAACGCGUGCUCCGUUGGAUGGAGUUUAUCAUG | -3.37
GGAUCUUCUCGAUCUAACAAAAAAGACAAAUCUGCCUCAAAGCUUGAGAGCAUCUUCGGAUGCAGUGGCGGCAGCAUUCGGUGGCGCGAUAGCGCCAACGUACUCAACUAUGACACGCAAAACGCGUGCUCCGUUGAAUGCAGUUUAUCAUG | ≤ -4.2
GGAUCUUCUCGAUCUAACAAAAAGGACAAAUCUGCCACAAAGCUUGAGAGCCUCUUCGGAUGCAGAGGCGGCAGCCUUCGGUGGCGCGAUAGCGCCAACGUUCUCAACUUUGACACGCAAAACGCGUGCUCCGUUGAAUGGAGUUUAUCAUG | ≤ -4.2
GGAUCUUCUCGAACUAACAAAAAAGACAAAUCUGCCUCAAAGCUUGAGAGCAUCUUCGGAUGCAGAGGCGGCAGCCUUCGGUGGCGCGAUAGCGCUAACGUUCUCAACUAUGACACGCAAAACGCUUGCUCCGUUGAAUGGAGUUUAUCAUG | -2.85
GGAUCUUCUCGAUCUAACAAAAAAGACAAAUCUGCCACAAAGCUUGAGAGCAACUUCGGAUGCAGAGGCGGCAGCCUUCGGUGGCGCGAUAGCGCCAACGUUCUCAACGAUGACAAGCAAAACGCGUGCUCCGUUCAAUGGAGCUUAUCAUG | -4.07

Variant | polymerase ribozyme fitness (log ratio)
GGAUCUUCUCUAUCUAACAAAAAAGACAAAUCUGCCACAAAGCUUGAGAGCAUCUUCGGAUGCAGAGGCGGCAGCCUUCGGUGGCGCGAUAGCGCUAACGUUCUCAACUAUGACACGCCAAACGCGUGCUCCGUUGAAUGGAGUUUAUCAUG | -1.07
GGAUCUUCUCGAUCUAACAAAAAAGACAAAUCUGCCACAAAGCUUGAGAGCAUCUUCGGAUGCAGAGGCGGCAGCCUUCGGUGGCGCGAUAGCGCCAACGUUCUCAUCUAUGACACGCAUAAAGCGUGCUCCGUUGAAUGGAGUUUAUCAUG | -3.58
GGCUCUUCUCGAUCUAACAAAAAAGACAAAUCUGCCACAAAGCUAGAGAGCAUCUUCGUAUGCAGAGGCGGCAGCCUUCGGUGGCGCGAUAUCGCCAACGUUCUCAACUAUGACACGCAAAACGCGUGCUCCGUUGAAUGGAGUUUAUCAUG | ≤ -4.2
GGAUCUUCUCGAUCUAACAAAAAAGACAAAUCUGCCACAAAGCUUGAGAGCAUCUUCGGAUGCAGAGGCGGCAGCCUUCGGUGGGGCGAUAGCGCCAACGUUCUCAACUAUGACACGCAAAGCGCGUGCUCCGUUGAAUGGAGUUUAUCAUG | -3.42
GGAUCUUCUCGAUCUAACAUAAAAGACAAAUCUGCCAUAAAGCUUGAGAGCAUCUUCGGAUGCAGAGGCGGCAGCCUUCGGUGGAUCGAUAGCGCCAACGUUCUCAACUAUGACACGCAAAACGCGUGCUCCGUUGAAUGGAGUUUAUCAUG | ≤ -4.2
GGAUCUUCUCGAUCUAACAAAAAAGACAAAUCUGCCACAAAGCUUGAGAGCAUCUUCGGAUGCAGAGGCGGCAGCCUUCGGUGGCGUGAUAGCGCUAACGUUCCCAUCUAUGACACGCAAAACGCGUGCUCCGUUGAAUGUAGUUUAUCAUG | ≤ -4.2
GGAUCUUCUCGAUCUAACAAAAAAGACAAAUCUGCCACAAAGCUUGAGAGCAUCUUCGGAUGCAGAGGCGGCAGCCUUCGUUGGCGCGAUAGCGCCAUCGUUCUCAACUAUGACAAGCAAAACGCGUGCUCCGUUGAAUGGAGUUUAUCAUG | 0.542
GGAUCUUCUCGAUCUAACCAAAAAGACAAAUCUGCCACAAAGCUUGAGAGCAUCUUCGGAUGCAGAGGCGGCAGCCUUCGGUGGCGCGAUAGCGAUAACGUUCUCAACUAUGACACGCAAAACGGGUGCUCCGUUGAAUGGAGUUUAUUAUG | ≤ -4.2
GGAUCUUCUCGAUCUAACAAAAAAGACAAAUCUGCCACAAAGCUUGAGAGCAUCUUCGGAUGCAGAGGCGGCAGCCUUCGUUGGCGCGAUAGCGCCAACGUUCUCAACUAUGACACGCAAAACGAGUGCUCCGUUGAAUGGAGUUUAUCAUG | -0.8
GGAUCUUCUCGAUCUAACAAAAAAGACAAAUCUGCCACAAAGCUUGAGAGCAUCUUCGGAUGCAGAGGCGGCAGCCUUCGGCGGCGCGAUAGCGUCAACGUUCUCAACUAUGACACGCAAAACGCGUGCUCCGUUGAAUGGAGUUUAUCAUG | -1.92
GGAUCUUCUCGAUCUAACAAAAAAGACAAAUCUGCCACAAAGCAUGCGAGCAUCUUUGGAUGCAGAGGCGGCAGCCUUCGGUGGCGCGAUAGCGCCAACGUUCUCAACUAUGACACGCAAAACGCGUCCUCCGUUGAAUGGAGUUUAUCAUG | ≤ -4.2
GGAUCUUCUCGAUCUAACAGAAAGGACAAAUCUGCCACAAAGCUUGAGAGCAACUUCGGAUGCAGAGGCGGCAGCCUUCGGUGGCGCGAUGGCGCCUACGUUCUCAACCAUGACACGCAAAACGCGUGCACCGUUGAAUGACGUUUAUCAUG | ≤ -4.2
GGAUCUACUCCAUCUAACAAAAAAGACAAAUCUGCCACAAAGCUUGAGAGCGUCUUCGGAUGCAGAGGCGGCAGCCUUCGGUGGCGCGCUGGCGUCAACGUUCUCAACUACGACACGCAAAACGCGUGCUUCGUUGAAUGGAGUUUAUCAUG | ≤ -4.2
GGAUCUUCUCGAUCUAACAAAAAAGACAAAUCUGCCACAAAGCUUGAGAGCAUCAUCUGAUGCAGAGGCGGCAGCCUUUGGUGGCGCAAUAGCGCCAACGUUCUCGACUAUGACACGCAAAACGCGUGCUCCGUUGAAUGGAGUUUAUCAUG | ≤ -4.2
GGAUCUUCUCGAUCUAAGAAAAAAGACAAAUCUGCCACAAAGCUUGAGAGCAUCUUAGGAUGCAGAGGCGGCAGCCUUCGGUGGCGCGAUAGCGCCAACGUUCUCAACUAUGACACGCAAAACGCGUGCUCCGUUGAAUGGAGUUUUUCAUG | 0.567
GGAUCUUCUCGAUCUAACAAAAAAGACAAAUCUGCCACAAAGCUUGAGAGCAUCUUCGGAUGCAGAGGCGGCAGCCUUCGGUGGCUCGAUAGCGCCAACGGUCUCAACUAUGACACGCAAAACGCGUGCUCCGUUGAAUGGAGUUUAUCAUG | -2.21
GGAUCUUUUCGAUCUAACAAAUAAGACAAAUCUGCCACAAAGCUUGAGAGUAUCUUCGGAUACAGAGGCGGCAGCCUUCGGUGGCGCGAUAGGGCCAACGUUAUGAACUAUGACACGCAAAACGCGUGCUCCGUUGAAUGGAGUUUAUCAUG | ≤ -4.2
GGAUCUUCUCGAUCUAACAAAGAAGACAAAUCUGCCACAAAGCAUGAGAGCACCUUCGGAUGCAGACGCGGCAGCCUUCGGUGGCGCGAUAGCGCCAAGGUUCUCAACUAUGACACGCAAAACGCAUGCUCCGCUGAAUGGAGUUUAUCAUG | ≤ -4.2
GGAUCUUCUCGAUCUAACAAAAAAGACAAAUCUGCCACAAAGCUUGCGAGCAUCUUCGGAUGCAGAGGCGGCAGCCUUCGGUGGCGCGAUAGCGCCAACGUUCUCAACUAUGACACGCAAAACGCGUGCUCCGUUAAAUGGAGUUUAUCAUG | 0.0265

Source: the RNAGym collection of RNA variant scans (doi:10.1073/pnas.2313332121)
